Results published in article PMC4814101.

How the values were obtained:
[1] = biological target: Bothropstoxin I (Bothrops jararacussu) (UniProt Q90249); experiment: SPR; Biacore T200; […]; 30 μL/min, 37°C; running buffer 0.1 M phosphate, 27 mM KCl, 1.37 M NaCl, pH 7.4; 1:1 Langmuir model
[2] = biological target: Bothropstoxin II (Bothrops jararacussu) (UniProt P45881); experiment: as above
UniProt P45881, sequence (P45881 17-138): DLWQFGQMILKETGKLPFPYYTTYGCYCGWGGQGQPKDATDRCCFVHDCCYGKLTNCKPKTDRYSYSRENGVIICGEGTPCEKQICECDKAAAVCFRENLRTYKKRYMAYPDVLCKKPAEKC

UniProt Q90249, sequence (Q90249 17-137): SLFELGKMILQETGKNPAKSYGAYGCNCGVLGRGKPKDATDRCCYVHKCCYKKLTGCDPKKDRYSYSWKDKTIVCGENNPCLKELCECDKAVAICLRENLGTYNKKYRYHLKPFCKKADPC

Substance | Kd [1] [nM] | koff [1] [s⁻¹] | kon [1] [M⁻¹ s⁻¹] | Kd [2] [nM] | koff [2] [s⁻¹] | kon [2] [M⁻¹ s⁻¹]
VHH KC329718 | 53.9 | 0.0346 | 642000 | 770 | 0.258 | 335000
VHH KF498608 | 668 | 0.119 | 179000 | 42.7 | 0.0302 | 
VHH KF498607 | 629 | 0.162 | 257000 |  | 0.516 | 184000
